The target of experiment [1] is T1, zinc-binding anti-sigma (ZAS) protein RsrA (S. coelicolor M145, UniProt Q7AKG8 1-105).
T1 chain: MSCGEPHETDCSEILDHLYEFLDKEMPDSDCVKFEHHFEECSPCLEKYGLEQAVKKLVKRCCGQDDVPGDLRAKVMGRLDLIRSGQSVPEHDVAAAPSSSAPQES
Nature of the experiment: BLI. Background: Biolayer interferometry detects binding as a change in optical thickness at a sensor tip.

Experiment [2] has as its target T2, rsrA-cfp-pET28a (+) protein (RCP) (S. coelicolor M145, UniProt Q7AKG8 1-105).
T2 chain: T1 chain
Nature of the experiment: BLI.

B1: sigR-yfp-pET28a (+) protein (SYP) (natural protein)
chain: not shown
modifications: biotinylated for the biolayer interferometry only
For orientation: Kd means a measure of binding affinity in units of concentration. Read a high Kd as a looser complex. B1 showed a Kd in experiment [1] of 52 nM.

B2: sigma factor σ^R (natural protein)
chain: not shown
modifications: biotinylated before capture on streptavidin biosensor tips
For the molecule B2, the Kd in experiment [2] worked out at 72 nM; in experiment [1], 47 nM.

Source of the values: paper PMC3961337 (2014).
